Data on one protein can be found in US20040087783.

This data set addresses denatured enolase.

B1: N-terminal hexahistidine tagged SAD (protein)
chain: MRGSHHHHHHEPFLRRRLAFLSFFWDKIWPAGGEPDHGTPGSLDPNTDPVPTLPAEPCSPFPQLFLALYDFTARCGGELSVRRGDRLCALEEGGGYIFARRLSGQPSAGLVPITHVAKASPETLSDQPWYFSGVSRTQAQQLLLSPPNEPGAFLIRPSESSLGGYSLSVRAQAKVCHYRVSMAADGSLYLQKGRLFPGLEELLTYYKANWKLIQNPLLQPCMPQKAPRQDVWERPHSEFALGRKLGEGYFGEVWEGLWLGSLPVAIKVIKSANMKLTDLAKEIQTLKGLRHERLIRLHAVCSGGEPVYIVTELMRKGNLQAFLGTPEGRALRLPPLLGFACQVAEGMSYLEEQRVVHRDLAARNVLVDDGLACKVADFGLARLLKDDIYSPSSSSKIPVKWTAPEAANYRVFSQKSDVWSFGVLLHEVFTYGQCPYEGMTNHETLQQIMRGYRLPRPAACPAEVYVLMLECWRSSPEERPSFATLREKLHAIHRCHP
Regarding B1, the “phosphorylation of substrate, in vitro kinase assay with 32P-ATP, autoradiography” value is “SAD was able to phosphorylate both denatured enolase and poly-Glu-Tyr in vitro”.
